The target of assay [1] is MHC class II molecules on MHC class II-expressing Raji cells (human). Put plainly: transfer cell ELISA, Raji cells; 125 ng/ml; plate row C.
The target is the same in assay [2]. Put plainly: transfer cell ELISA, Raji cells; 500 ng/ml; plate row C.
Assay [3] has the same target. Put plainly: transfer cell ELISA, Raji cells; 1000 ng/ml; plate row C.
Assay [4] has the same target. Put plainly: transfer cell ELISA, Raji cells; 3.906 ng/ml; plate row D.
For assay [5] the target is unchanged. Put plainly: transfer cell ELISA, Raji cells; 31.25 ng/ml; plate row C.
For assay [6] the target is unchanged. Put plainly: transfer cell ELISA, Raji cells; 7.813 ng/ml; plate row C.
Assay [7] shares this target. Nature of the assay: direct ELISA, plate-immobilised Raji cells; 5% BSA, 5,000 cells; 125 ng/ml.
Assay [8] shares this target. Nature of the assay: direct ELISA, plate-immobilised Raji cells; 10% FBS, 2,500 cells; 125 ng/ml.
Assay [9] has the same target. Put plainly: direct ELISA, plate-immobilised Raji cells; 10% FBS, 5,000 cells; 125 ng/ml.
Assay [10] has the same target. Nature of the assay: direct ELISA, plate-immobilised Raji cells; 5% BSA, 10,000 cells; 500 ng/ml.
Assay [11] shares this target. Put plainly: direct ELISA, plate-immobilised Raji cells; 10% FBS, 10,000 cells; 250 ng/ml.
The target is the same in assay [12]. Nature of the assay: direct ELISA, plate-immobilised Raji cells; 10% FBS, 2,500 cells; 1000 ng/ml.
For assay [13] the target is unchanged. Put plainly: direct ELISA, plate-immobilised Raji cells; 5% BSA, 5,000 cells; 15.625 ng/ml.
Assay [14] has the same target. Nature of the assay: direct ELISA, plate-immobilised Raji cells; 10% FBS, 2,500 cells; 15.625 ng/ml.
The target is the same in assay [15]. Nature of the assay: transfer cell ELISA, Raji cells; 125 ng/ml.
Assay [16] has the same target. Put plainly: transfer cell ELISA, Raji cells; 250 ng/ml.
The target is the same in assay [17]. Nature of the assay: transfer cell ELISA, Raji cells; 500 ng/ml.
The target is the same in assay [18]. Nature of the assay: transfer cell ELISA, Raji cells; 62.5 ng/ml.
Assay [19] has the same target. Nature of the assay: transfer cell ELISA, Raji cells; 0.977 ng/ml.
Assay [20] has the same target. Nature of the assay: direct ELISA, plate-immobilised Raji cells; 3% gelatin, 5,000 cells; 125 ng/ml.
Assay [21] shares this target. Nature of the assay: direct ELISA, plate-immobilised Raji cells; 3% gelatin, 5,000 cells; 250 ng/ml.
The target is the same in assay [22]. Put plainly: direct ELISA, plate-immobilised Raji cells; 0.5% Casein, 2,500 cells; 250 ng/ml.
For assay [23] the target is unchanged. Put plainly: direct ELISA, plate-immobilised Raji cells; 3% gelatin, 5,000 cells; 1000 ng/ml.
Assay [24] shares this target. Put plainly: direct ELISA, plate-immobilised Raji cells; 3% gelatin, 5,000 cells; 62.5 ng/ml.
Assay [25] shares this target. Put plainly: direct ELISA, plate-immobilised Raji cells; 0.5% Casein, 10,000 cells; 250 ng/ml.
The target is the same in assay [26]. Put plainly: direct ELISA, plate-immobilised Raji cells; 0.5% Casein, 5,000 cells; 62.5 ng/ml.
The target is the same in assay [27]. Put plainly: direct ELISA, plate-immobilised Raji cells; 3% gelatin, 2,500 cells; 31.25 ng/ml.
The target is the same in assay [28]. Put plainly: BLI; immobilised sample, Raji cells in solution; control of FIG. 18 (37° C., 1 day, no H2O2).
The target is the same in assay [29]. Nature of the assay: BLI; IMP321 sample at 125% binding potency, Raji cells in solution; relative to reference standard.
Assay [30] shares this target. Put plainly: BLI; IMP321 sample diluted from reference standard to 75% binding potency, Raji cells in solution; relative to reference standard.

On to “IMP321 treated with Peptide-N-Glycosidase F (PNGase F) (Fc fusion)”, for which the OD (ELISA signal) in assay [1] is 0.166 OD; in assay [2], 0.642 OD; in assay [3] it was 0.878 OD; in assay [4], 0.012 OD; in assay [5], 0.042 OD; in [6] it was 0.02 OD. Further, the OD (ELISA signal) came out at 0.476 OD in assay [7]; 1.12 OD in assay [8]; 0.443 OD in assay [9]; 1.3 OD in [10]; 0.762 OD in assay [11]; 2.39 OD in assay [12]. The OD (ELISA signal) in assay [13] turned out to be 0.274 OD; in assay [14], 0.27 OD.
As to “IMP321, recombinant soluble human LAG-3Ig fusion protein (Fc fusion)”, the OD (ELISA signal) in assay [15] came out at 0.475 OD; in assay [16], 0.956 OD; in assay [17] it was 1.81 OD; in assay [18], 0.223 OD; in assay [19], 0.018 OD; in [20], 0.823 OD. For the same substance, the OD (ELISA signal) in assay [21] came out at 2.1 OD; in assay [22] it was 0.231 OD; in assay [23], 2.31 OD; in assay [24], 0.464 OD; in assay [25], 0.241 OD; in assay [26], 0.131 OD. For the same substance, the OD (ELISA signal) in assay [27] stood at 0.303 OD. Also, in assay [28], the Bioactivity (binding) was found to be 77%. The Potency determined by BLI assay is 135% in [29] and 80% in assay [30].

Values taken from US20190361034A1.
